In patent publication US20230183352A1 (published 2023):

Columns and labels:
[1] = target: T1, Claudin 18.2 (CLDN18.2), expressed on CHOS-CLDN 18.2 / HEK293-CLDN 18.2 / HCC827-CLDN 18.2 cells (human, UniProt P56856-2 1-261); assay: FACS, CHOS-CLDN18.2 cells
T1 construct: whole, on cells; The species is not repeated for the CHOS-CLDN 18.2 cells; also called claudin-18A2

[2] = target: T1, Claudin 18.2 (CLDN18.2), expressed on …; assay: FACS, CHOS-CLDN18.2 cells, 5 µg/ml
[3] = target: T1, Claudin 18.2 (CLDN18.2), expressed on …; assay: FACS, CHOS-CLDN18.2 cells, 20 µg/ml
[4] = target: T1, Claudin 18.2 (CLDN18.2), expressed on …; assay: FACS, CHOS-CLDN18.2 cells, 10 µg/ml
[5] = target: T1, Claudin 18.2 (CLDN18.2), expressed on …; assay: FACS, CHOS-CLDN18.2 cells, 0.005 µg/ml
[6] = target: T1, Claudin 18.2 (CLDN18.2), expressed on …; assay: FACS, CHOS-CLDN18.2 cells, 0.020 µg/ml
[7] = target: T1, Claudin 18.2 (CLDN18.2), expressed on …; assay: FACS, CHOS-CLDN18.2 cells, 0.078 µg/ml
[8] = target: T1, Claudin 18.2 (CLDN18.2), expressed on …; assay: FACS, CHOS-CLDN18.2 cells, 0.313 µg/ml
[9] = target: T1, Claudin 18.2 (CLDN18.2), expressed on …; assay: FACS, CHOS-CLDN18.2 cells, 1.250 µg/ml
[10] = target: T1, Claudin 18.2 (CLDN18.2), expressed on …; assay: FACS, CHOS-CLDN18.2 cells, 0 µg/ml (background)
[11] = target: T1, Claudin 18.2 (CLDN18.2), expressed on …; assay: FACS, MFI on CHOS-CLDN18.2 over MFI on CHOS-CLDN18.1, 10 µg/ml
[12] = target: T1, Claudin 18.2 (CLDN18.2), expressed on …; assay: cell-based or functional assay
[13] = target: T2, PD-L1 Protein, Human, Recombinant (His Tag) (human, UniProt Q9NZQ7 19-239); assay: SPR Biacore T200, antibody captured, PD-L1 His as analyte, 1:1 binding
T2 construct: Bought protein; also called QPP09.1; SinoBiologic 10084-H08H
T2 sequence (Q9NZQ7 19-239 limits assumed): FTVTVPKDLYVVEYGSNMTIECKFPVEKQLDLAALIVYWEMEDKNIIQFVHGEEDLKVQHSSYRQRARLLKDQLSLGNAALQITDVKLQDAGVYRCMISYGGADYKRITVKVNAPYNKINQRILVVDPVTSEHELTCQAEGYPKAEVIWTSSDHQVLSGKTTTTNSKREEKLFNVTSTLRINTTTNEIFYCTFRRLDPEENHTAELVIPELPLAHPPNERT

[14] = target: T3, PD-L1 Protein, Cynomolgus, Recombinant (His Tag) (cynomolgus); assay: as above
T3 construct: Bought protein; also called QPP10.1; SinoBiologic 90251-C08H

Binder	EC50 [1] [mg/L]	max [1]	FACS reading [2]	FACS reading [3]	MFI [4]	FACS reading [5]	FACS reading [6]	FACS reading [7]	FACS reading [8]	FACS reading [9]	FACS reading [10]	CLDN18.2/CLDN18.1 (MFI ratio) [11]	Kd [13] [nM]	koff [13] [s⁻¹]	kon [13] [M⁻¹ s⁻¹]	Kd [14] [nM]	koff [14] [s⁻¹]	kon [14] [M⁻¹ s⁻¹]	also measured
QP14641461 (antibody, human IgG1, kappa, V domains shown, Humanized from QP207208) VH: EVQLVQSGAEVKKPGASVKVSCKASGYTFTSYIMHWVRQAPGQGLEWIGYINPYNDGTKYNEKFKGRVTLTRDKSTSTVYMELSSLRSEDTAVYYCARLGFTTRNAMDYWGQGTLVTVSS VL: DIVMTQSPDSLAVSLGERATINCKSSQSLLNSGNQKNYLAWYQQKPGQPPKLLIYGASTRESGVPDRFTGSGSGTDFTLTISSLQAEDVAVYYCQNDHSYPFTFGQGTKLEIKR	0.165	166000	166000	99500	721000	5980	19900	46300	97500	160000	732	709	–	–	–	–	–	–	–
QP14631461 (antibody, human IgG1, kappa, V domains shown, also called QP14611463) VH: QVQLVQSGAEVKKPGASVKVSCKASGYTFTSYIMHWVRQAPGQGLEWMGYINPYNDGTKYNEKFKGRVTMTRDTSTSTVYMELSSLRSEDTAVYYCARLGFTTRNAMDYWGQGTLVTVSS VL: DIVMTQSPDSLAVSLGERATINCKSSQSLLNSGNQKNYLAWYQQKPGQPPKLLIYGASTRESGVPDRFTGSGSGTDFTLTISSLQAEDVAVYYCQNDHSYPFTFGQGTKLEIKR	0.156	227000	227000	131000	657000	7790	19300	51400	144000	201000	732	700	–	–	–	–	–	–	EC50 of killing, ADCC (PBMC, HEK293-CLDN18.2 cells) [12]: 0.0115 mg/L; Killing percentage, ADCC (PBMC, HEK293-CLDN18.2 cells), 0 µg/ml [12]: 4.88%; Killing percentage, ADCC (PBMC, HEK293-CLDN18.2 cells), 0.0001024 µg/ml [12]: 4.3%; Killing percentage, ADCC (PBMC, HEK293-CLDN18.2 cells), 0.000512 µg/ml [12]: 5.65%; Killing percentage, ADCC (PBMC, HEK293-CLDN18.2 cells), 0.00256 µg/ml [12]: 10.2%; Killing percentage, ADCC (PBMC, HEK293-CLDN18.2 cells), 0.0128 µg/ml [12]: 23.4%; Killing percentage, ADCC (PBMC, HEK293-CLDN18.2 cells), 0.064 µg/ml [12]: 39.3%; Killing percentage, ADCC (PBMC, HEK293-CLDN18.2 cells), 0.32 µg/ml [12]: 43.8%; Killing percentage, ADCC (PBMC, HEK293-CLDN18.2 cells), 1.6 µg/ml [12]: 43.4%; Killing percentage, ADCC (PBMC, HEK293-CLDN18.2 cells), 8 µg/ml [12]: 46.3%; Killing percentage, ADCC (PBMC, HEK293-CLDN18.2 cells), 40 µg/ml [12]: 28.6%
QP207208 (antibody, human IgG1, V domains shown, Chimeric; also called 51A3; mouse-derived chimeric antibody QP207208) VH: EVQLQQSGPELVKPGASVKMSCKASGYTFTSYIMHWVKQKPGQGLEWIGYINPYNDGTKYNEKFKGKATLTSDKSSSTVYMELSSLTSEDSAVYCCARLGFTTRNAMDYWGQGTSVTVSS VL: DIVMTQSPSSLSVSAGEKVTMNCKSSQSLLNSGNQKNYLAWYQQKPGQPPKLLIYGASTRESGVPDRFTGSGSGTDFTLTISSVQAEDLAVYYCQNDHSYPFTFGSGTKLEIK	0.267	187000	187000	117000	627000	5090	11500	24700	90200	149000	732	476	–	–	–	–	–	–	–
QP325 (Fc fusion, Humanization design of QP1166; VHH-Fc; also called 1166-V3; QD325; not shown: human IgG1-FC constant region fused to the C terminal of the VHH) EVQLLESGGGLVQPGGSLRLSCAASGFTYGTYAMSWFRQAPGKGLEGVACIDIYGRTSYTDPVKGRFTISQDNSKNTLYLQMNSLRAEDTAVYYCAARDFGYCTASWVHEGFSRYWGQGTLVTVSS	–	–	–	–	–	–	–	–	–	–	–	–	10.7	0.004	375000	19.6	0.00416	212000	–
QP1162 (Fc fusion, Chimeric antibody before humanization; also called QD1162; nanobody QP1162; not shown: Fc part: called chimeric antibody, cloned in vector VH-FC-pQD) QVQLVESGGGSVQSGGSLRLSCAASGFTYGTYAMSWFRQAPGKEREGVACIDIYGRASYTDPVKGRFTISQDNAKNTLYLQMNSLKPEDTAMYYCAARDFGYCTASWVHEGFSRYWGQGTQVTVSS	–	–	–	–	–	–	–	–	–	–	–	–	2.77	0.00379	1.37e+06	5.6	0.00401	715000	–
QP1166 (Fc fusion, Chimeric antibody before humanization; also called QD1166; nanobody QP1166; not shown: Fc part: called chimeric antibody, cloned in vector VH-FC-pQD) QVQLVESGGDSVQPGGSLRLSCAASGFTYGTYAMSWFRQAPGKEREGVACIDIYGRTSYTDPVKGRFTISQDNAKNTLYLQMNSLKPEDTAMYYCAARDFGYCTASWVHEGFSRYWGQGTQVTVSS	–	–	–	–	–	–	–	–	–	–	–	–	2.63	0.00255	968000	5.6	0.00266	475000	–

The next lines start with results.

EC50 [1] [mg/L]	max [1]	FACS reading [2]	FACS reading [3]	MFI [4]	FACS reading [5]	FACS reading [6]	FACS reading [7]	FACS reading [8]	FACS reading [9]	FACS reading [10]	CLDN18.2/CLDN18.1 (MFI ratio) [11]	Kd [13] [nM]	koff [13] [s⁻¹]	kon [13] [M⁻¹ s⁻¹]	Kd [14] [nM]	koff [14] [s⁻¹]	kon [14] [M⁻¹ s⁻¹]	Binder	also measured
0.0936	191000	191000	114000	604000	6600	16200	44300	151000	146000	732	579	–	–	–	–	–	–	QP14641460 (antibody, human IgG1, kappa, V domains shown, Humanized from QP207208) VH: EVQLVQSGAEVKKPGASVKVSCKASGYTFTSYIMHWVRQAPGQGLEWIGYINPYNDGTKYNEKFKGRVTLTRDKSTSTVYMELSSLRSEDTAVYYCARLGFTTRNAMDYWGQGTLVTVSS VL: DIVMTQSPDSLAVSLGERATINCKSSQSLLNSGNQKNYLAWYQQKPGQPPKLLIYGASTRESGVPDRFSGSGSGTDFTLTISSLQAEDVAVYYCQNDHSYPFTFGQGTKLEIKR	–
0.306	224000	224000	117000	758000	8450	15800	29300	93600	170000	732	718	–	–	–	–	–	–	QP14641462 (antibody, human IgG1, kappa, V domains shown, Humanized from QP207208) VH: EVQLVQSGAEVKKPGASVKVSCKASGYTFTSYIMHWVRQAPGQGLEWIGYINPYNDGTKYNEKFKGRVTLTRDKSTSTVYMELSSLRSEDTAVYYCARLGFTTRNAMDYWGQGTLVTVSS VL: DIVMTQSPDSLAVSLGERATINCKSSQSLLNSGNQKNYLAWYQQKPGQPPKLLIYGASTRESGVPDRFTGSGSGTDFTLTISSVQAEDVAVYYCQNDHSYPFTFGQGTKLEIKR	–
0.186	189000	189000	174000	595000	7190	19600	50300	134000	219000	732	596	–	–	–	–	–	–	QP14651460 (antibody, human IgG1, kappa, V domains shown, Humanized from QP207208) VH: EVQLVQSGAEVKKPGASVKVSCKASGYTFTSYIMHWVRQAPGQGLEWIGYINPYNDGTKYNEKFKGRVTLTSDKSTSTVYMELSSLRSEDTAVYYCARLGFTTRNAMDYWGQGTLVTVSS VL: DIVMTQSPDSLAVSLGERATINCKSSQSLLNSGNQKNYLAWYQQKPGQPPKLLIYGASTRESGVPDRFSGSGSGTDFTLTISSLQAEDVAVYYCQNDHSYPFTFGQGTKLEIKR	–
